Laboratory results: patent publication US20200239863

Assays:
[1] = tested on: PIN-XTEN-dCas9-2xNLS (Streptococcus pyogenes); assay: cell_activity; conditions: no PAMmer, Northern dot blot; full-length Cas9 gave >95% loss in FIG. 8C
[2] = tested on: PIN-dCas9 deltaHNH del775-909 (Streptococcus pyogenes); assay: cell_activity; conditions: COSM6, Northern blot

For “CUG repeat-targeting sgRNA ; CUG repeat RNA”, which activity (% RNA remaining) [1] is on record?
The activity (% RNA remaining) was 35.

What about the activity [2] of the same sequence?
The activity was > 95 % RNA loss.
